Experimental data as given in patent US20160177307.

Key:
Experiment in all cases: filter
[1] = tested on: T1, VEGF-121 (Homo sapiens), P15692-9
T1 sequence: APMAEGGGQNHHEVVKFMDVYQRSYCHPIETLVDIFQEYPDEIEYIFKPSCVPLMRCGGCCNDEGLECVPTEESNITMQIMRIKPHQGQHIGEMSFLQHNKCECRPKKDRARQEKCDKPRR

[2] = tested on: T2, VEGF-164 (Rattus norvegicus), P16612-2; conditions: P=Nap-dU
T2 sequence: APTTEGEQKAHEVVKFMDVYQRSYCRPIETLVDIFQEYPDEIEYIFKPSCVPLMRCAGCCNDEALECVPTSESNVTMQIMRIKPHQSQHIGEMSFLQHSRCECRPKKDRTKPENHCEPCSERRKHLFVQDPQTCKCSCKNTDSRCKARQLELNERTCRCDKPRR

[3] = tested on: T3, VEGF-165 (Homo sapiens), P15692-4
T3 sequence: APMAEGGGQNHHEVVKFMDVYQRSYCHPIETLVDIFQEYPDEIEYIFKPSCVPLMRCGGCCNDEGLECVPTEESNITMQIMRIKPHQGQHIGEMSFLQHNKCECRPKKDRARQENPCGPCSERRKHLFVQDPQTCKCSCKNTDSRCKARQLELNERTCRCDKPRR

[4] = molecular target: PDGF-BB (platelet-derived growth factor BB) (Homo sapiens) (UniProt P01127); conditions: 2'-OMe
Sequence of PDGF-BB (platelet-derived growth factor BB) (Homo sapiens) (P01127 82-190): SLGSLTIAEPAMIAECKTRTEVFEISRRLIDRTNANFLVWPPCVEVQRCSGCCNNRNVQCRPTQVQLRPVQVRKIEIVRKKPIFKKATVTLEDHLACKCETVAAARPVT

[5] = Bn-dU, MBn-dU, Nap-dU, 2'-OMe, C3, 2 Heg between parts
[6] = Nap-dU, Bn-dU, MBn-dU, 2'-OMe, C3, 4 Heg between parts
[7] = Bn-dU, MBn-dU, Nap-dU, 2'-OMe, C3, 5 Heg between parts

AATCAGCCGTTCAAGTGCTTGTAGGATTTAAATGGAA [4867-31_33]
Kd ([1]; P=Nap-dU): 0.55 nM | Kd [2]: 0.04 nM | Kd ([3]; P=Nap-dU): 0.11 nM

CCGTTCAAGTGCTTGTAGGATTTAAATGGCGACAGCATGTATGCACATCT [5169-4_96]
Kd ([4]; VEGF-3Heg-PDGF, NapdU): 0.0045 nM | Kd ([1]; VEGF-3Heg-PDGF, NapdU, 2'-OMe): 0.076 nM

GCCGTTCAAGTGCTTGTAGGATTTAAATGGA [4867-31_58]
Kd ([1]; NapdU at P): 0.15 nM | Kd [2]: 0.21 nM | Kd ([3]; NapdU at P): 0.1 nM

AGCCGTTCAAGTGCTTGTAGGATTTAAATG [4867-31_52]
Kd ([1]; NapdU at P): 2.8 nM | Kd [2]: 0.58 nM | Kd ([3]; NapdU at P): 0.17 nM

CGTTCAAGTGCTTGTAGGATTTAAATGGA [4867-31_60]
Kd ([1]; NapdU at P): 2.2 nM | Kd [2]: 1.4 nM | Kd ([3]; NapdU at P): 0.61 nM

CAATCAGCCGTTCAAGTGCTTGTAGGATTTAAATGGA [4867-31_38]
Kd ([1]; P=Nap-dU): 0.81 nM | Kd [2]: 0.09 nM | Kd ([3]; P=Nap-dU): 0.17 nM

CAGCCGTTCAAGTGCTTGTAGGATTTAAATGGAAT [4867-31_30]
Kd ([1]; P=Nap-dU): 1.4 nM | Kd [2]: 0.15 nM | Kd ([3]; P=Nap-dU): 0.2 nM

TCAGCCGTTCAAGTGCTTGTAGGATTTAAATGGAA [4867-31_35]
Kd [2]: 0.05 nM | Kd ([3]; P=Nap-dU): 0.11 nM

CAGCCGTTCAAGTGCTTGTAGGATTTAA [4867-31_48]
Kd [2]: 142 nM

TTACGTTACCGCGTTTATAGCGCCGTTCAAGTGCTTGTAGGATTTAAATGG [4149-8_414]
Kd ([4]; Bn-dU, MBn-dU, Nap-dU, C3, 2 Heg between parts): 0.01 nM | Kd [1, 5]: 0.023 nM | Kd [3, 5]: 0.051 nM

CCGTTCAAGTGCTTGTAGGATTTAAATGGTTACGTTACCGCGTTTATAGCG [4149-8_411]
Kd ([4]; Nap-dU, Bn-dU, MBn-dU, C3, 4 Heg between parts): 0.0072 nM | Kd [1, 6]: 0.02 nM | Kd [3, 6]: 0.045 nM

TTACGTTACCGCGTTTATAGCGCCGTTCAAGTGCTTGTAGGATTTAAATGG [4149-8_416]
Kd ([4]; Bn-dU, MBn-dU, Nap-dU, C3, 5 Heg between parts): 0.0089 nM | Kd [1, 7]: 0.041 nM | Kd [3, 7]: 0.03 nM

CGACAGCATGTATGCACATCTCCGTTCAAGTGCTTGTAGGATTTAAATGG [5169-4_104]
Kd ([4]; PDGF-1Heg-VEGF, NapdU): 0.0046 nM | Kd ([1]; PDGF-1Heg-VEGF, NapdU, 2'-OMe): 0.28 nM

CCGTTCAAGTGCTTGTAGGATTTAAATGG [4867-31_416]
Kd ([1]; as 4867-31_192, PS 3' of 10, 3' inverted dT): 0.0093 nM

CCGTTCAAGTGCTTGTAGGATTTAAATGG [4867-31_440]
Kd ([1]; as 4867-31_192, PS 3' of 12, 3' inverted dT): 0.0099 nM

AGCCGTTCAAGTGCTTGTAGGATTTAAATGGA [4867-31_76]
Kd ([1]; 2'-OMe-U at 12 in place of NapdU, other P are NapdU, 2'-OMe-U for NapdU): 22.9 nM

CCGTTCAAGTGCTTGTAGGATTTAAATGG [4867-31_421]
Kd ([1]; as 4867-31_192, PS 3' of 16, 3' inverted dT): 0.015 nM

CCGTTCAAGTGCTTGTAGGATTTAAATGGCGACAGCATGTATGCACATCT [5169-4_93 (VEGF-6Heg-PDGF)]
Kd ([1]; P NapdU, superscript 1 2'-OMe, six Heg linkers): 0.052 nM

CCCTCCATCAGCCGTTCAAGTGCTTGTAGGATTTAAATGGAATTGGAGA [4867-15_72]
Kd ([1]; P=Nap-dU, C3 spacer at 49): 0.19 nM

CGACAGCATGTATGCACATCTCCGTTCAAGTGCTTGTAGGATTTAAATGG [5169-4_100]
Kd ([4]; PDGF-5Heg-VEGF, NapdU): 0.0015 nM | Kd ([1]; PDGF-5Heg-VEGF, NapdU, 2'-OMe): 0.056 nM

CCGTTCAAGTGCTTGTAGGATTTAAATGG [4867-31_426]
Kd ([1]; as 4867-31_192, PS 3' of 24, 3' inverted dT): 0.012 nM

CCCTCCATCAGCCGTTCAAGTGCTTGTAGATTTAAATGGAATTGGAGGA [4867-15_52]
Kd ([1]; P=Nap-dU, C3 spacer at 29): 0.2 nM

CCGTTCAAGTGCTTGTAGGATTTAAATGG [4867-31_156]
Kd ([1]; NapdU at P, 2'-OMe 10): 0.68 nM

CCGTTCAAGTGCTTGTAGGATTTAAATGG [4867-31_425]
Kd ([1]; as 4867-31_192, PS 3' of 22 or 23 (printed P1-P2), 3' inverted dT): 0.016 nM

CCGTTCAAGTGCTTGTAGGATTTAAATGG [4867-31_412]
Kd ([1]; as 4867-31_192, PS 3' of 4, 3' inverted dT): 0.022 nM

CCCTCCATCAGCCGTTCAAGTGCTTGTAGGATTTAAATGGAATTGAGGA [4867-15_68]
Kd ([1]; P=Nap-dU, C3 spacer at 45): 0.32 nM

CCCTCCATCACCGTTCAAGTGCTTGTAGGATTTAAATGGAATTGGAGGA [4867-15_34]
Kd ([1]; P=Nap-dU, C3 spacer at 11): 0.14 nM

CCCTCCATCAGCCGTTCAAGTGCTTGTAGGATTTAAATGAATTGGAGGA [4867-15_62]
Kd ([1]; P=Nap-dU, C3 spacer at 39): 53 nM

CCCTCCATCAGCCGTTCAATGCTTGTAGGATTTAAATGGAATTGGAGGA [4867-15_43]
Kd ([1]; P=Nap-dU, C3 spacer at 20): 9.2 nM
